Results published in US20190375786A1, “STABLE PEPTIDES AND METHODS OF USE THEREOF” (Fred Hutchinson Cancer Research Center, priority 2016, published 2019).
“Also recorded” adds a separate entry of the source. Positions of bridges follow the written chain, without caps; N, C: chain ends. Residues, ends and D or L forms follow the SMILES beside them.

Legend:
pepsin = pepsin (Sus scrofa, UniProt P00791); experiment: Pepsin digestion resistance in simulated gastric fluid, RP-HPLC; type: in vitro ADME, porcine; set-up: purchased Sigma Aldrich P7012
Experimental: Peptides were first suspended in 500 ul of ddH2O to a stock concentration of 2 mg/ml. Reactions were prepared by adding 12.5 ug of peptide from the stock solution to a 10 mM solution of DTT in PBS and allowed to incubate at room temperature for 30 minutes. Other reactions were prepared with 12.5 μg peptide with or without 500 U/ml pepsin in simulated gastric fluid (SGF; pH 1.05; […] sodium chloride in 0.7% (v/v) hydrochloric acid) and were incubated for 30 minutes at 37.5° C. Some reactions were quenched with a final concentration of 100 mM Tris base and 10 mM dithiothreitol (DTT). Some reactions were performed in all of the above components, including simulated gastric fluid, pepsin, Tris, and DTT (referred to as SPTD). Reversed phase HPLC (RP-HPLC) was run on samples using an Agilent 1260 HPLC equipped with a C-18 Poroshell 120B column. Sample were analyzed by a gradient method with a mobile phase of Solvent A (water with 0.1% TFA) and Solvent B (acetonitrile with 0.1% TFA). Solvent B was ramped up from 5%-45% of the mobile phase over a period of 10 minutes. Peptides were detected at an absorbance of 214 nm and 280 nm.
(§1) Peptides were first suspended in 500 μl of ddH2O to a stock concentration of 2 mg/ml. Reactions were prepared by adding 12.5 μg of peptide from the stock solution to a 10 mM solution of DTT in PBS and allowed to incubate at room temperature for 30 minutes. Other reactions were prepared with 12.5 μg peptide and 500 U/ml trypsin in 25 mM Tris/75 mM NaCl buffer (pH 7.0) and incubated for 30 minutes at 37.5° C. These reactions were then quenched with 5 μg of soybean trypsin inhibitor (I) and, in some cases, 10 mM dithiothreitol (DTT). Reversed phase HPLC (RP-HPLC) was run on samples using an Agilent 1260 HPLC equipped with a C-18 Poroshell 120B column. Sample were analyzed by a gradient method with a mobile phase of Solvent A (water with 0.1% TFA) and Solvent B (acetonitrile with 0.1% TFA). Solvent B was ramped up from 5%-45% of the mobile phase over a period of 10 minutes. For testing pepsin digestion resistance, reactions were prepared with 12.5 μg peptide with or without 500 U/ml pepsin in simulated gastric fluid (SGF; pH 1.05; […] sodium chloride in 0.7% (v/v) hydrochloric acid) and were incubated for 30 minutes at 37.5° C. For testing temperature resistance, peptides were incubated at 70° C., 75° C., or 100° C. for one hour in 0.5 mM PBS, pelleted, and then the supernatant was analyzed by HPLC.
(§2) This example illustrates peptide stability in biological conditions including in the presence of reducing agents, proteases, oxidative conditions, acidic conditions, and simulated gastric fluids. […] Various peptides were suspended in 500 μl of ddH2O at a stock concentration of 2 mg/ml. This was then diluted in accord with the reaction conditions to prevent adverse buffering effects. Reactions were prepared with 12.5 μg peptide dissolved in solution and, in some samples, additionally suspended in a 10 mM solution of DTT, simulated gastric fluid (pH 1.05; […] sodium chloride in 0.7% (v/v) hydrochloric acid), 500 U pepsin (5000 U/ml pepsin), 50 U trypsin (500 U/ml trypsin) with 1 mg/ml inhibitor in PBS, or a combination of any of these conditions. All protease reactions were incubated for 30 min at room temperature and then quenched. Pepsin reactions were quenched by adding Tris base to a final concentration of 0.075 M. Trypsin reactions were quenched by adding excess soybean trypsin inhibitor. RP-HPLC was then run on samples using an Agilent 1260 HPLC equipped with a C-18 Poroshell 120B column. Sample were analyzed by a gradient method with a mobile phase of Solvent A (water with 0.1% TFA) and Solvent B (acetonitrile with 0.1% TFA). Solvent B was ramped up from 5%-45% of the mobile phase over a period of 10 minutes.
FIG. 20 illustrates high performance liquid chromatograph (HPLC) traces of peptides after pepsin digestion. […]

trypsin = trypsin (Sus scrofa, UniProt P00761); experiment: Trypsin digestion resistance of soluble peptide, RP-HPLC; type: in vitro ADME, porcine; set-up: purchased Sigma Aldrich 6567; conditions: 30 minutes at 37.5° C.
Experimental: as §1, §2
Soluble peptides were exposed to 500 U/mL porcine trypsin and analyzed by HPLC. Protease resistance was also assessed by using SDPR-displaying peptides. The SDPR vector is similar to the a surface display GFP FasL(SDGF) vector, but contains a C-terminal 6×His tag (SEQ ID NO: 180) and all basic or aromatic amino acid residues on the stalk removed. Protease resistance is then tested by incubation of cells displaying peptides with trypsin or chymotrypsin, followed by incubation in 10 mM DTT, and staining with an anti-6×His fluorophore-labeled antibody (“6×His” disclosed as SEQ ID NO: 180). If peptides are uncleaved, they retain the His tag and are stained with by the antibody. A control protease-sensitive knottin peptide (SK) was used as a positive control. Cells displaying peptides were treated with up to 40 μg/ml trypsin or chymotrypsin.
FIG. 21 illustrates high performance liquid chromatograph (HPLC) traces of peptides after trypsin digestion. […] The assay was carried out by reconstituting 1 mg porcine trypsin (Sigma Aldrich 6567) in 1 mL of 1 mM HCl. Trypsin was provided at a concentration of 10,000 u/mL and thus, 5 μl of stock solution was equivalent to using 50 U of trypsin in each reaction. Soybean trypsin inhibitor (SA T9128) was prepared at 1 mg/mL of in H2O. […]

[1] = Resistance to elevated temperature, HPLC; type: physicochemical; conditions: HPLC; for resistance to incubation at 100° C. (in words): 100° C. for 1 hour; for resistance to incubation at 70° C. (in words): 70° C. for 1 hour
Experimental: as §1
This example illustrates peptide stability at high temperatures. Peptides were first suspended in 500 μl of ddH2O to a stock concentration of 2 mg/ml. Reactions were prepared by adding 6.25 μl of peptide from the stock solution with 95 μl ddH2O and incubated at room temperature, 70° C., or 100° C. for one hour in a Thermocycler. RP-HPLC was then run on samples using an Agilent 1260 HPLC equipped with a C-18 Poroshell 120B column. Sample were analyzed by a gradient method with a mobile phase of Solvent A (water with 0.1% TFA) and Solvent B (acetonitrile with 0.1% TFA). Solvent B was ramped up from 5%-45% of the mobile phase over a period of 10 minutes.

trypsin, sequence (P00761 9-231): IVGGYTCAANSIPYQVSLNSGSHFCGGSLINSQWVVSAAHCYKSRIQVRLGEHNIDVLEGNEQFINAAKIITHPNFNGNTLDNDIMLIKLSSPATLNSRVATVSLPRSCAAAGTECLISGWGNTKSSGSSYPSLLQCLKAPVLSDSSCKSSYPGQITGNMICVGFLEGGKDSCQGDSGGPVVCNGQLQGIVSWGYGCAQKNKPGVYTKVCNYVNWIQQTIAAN
pepsin, sequence (P00791 60-385): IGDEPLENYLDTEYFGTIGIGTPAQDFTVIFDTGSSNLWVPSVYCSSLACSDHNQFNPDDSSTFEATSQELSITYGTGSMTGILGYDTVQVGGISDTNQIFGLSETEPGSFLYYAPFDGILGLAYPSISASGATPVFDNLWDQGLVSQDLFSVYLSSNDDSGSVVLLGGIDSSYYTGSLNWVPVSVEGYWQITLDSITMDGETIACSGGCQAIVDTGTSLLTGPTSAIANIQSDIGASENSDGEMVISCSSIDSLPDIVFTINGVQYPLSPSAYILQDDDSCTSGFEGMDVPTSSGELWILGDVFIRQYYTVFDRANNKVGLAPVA

CC[C@H](C)[C@H](NC(=O)CNC(=O)[C@H](CO)NC(=O)CN)C(=O)N[C@H](C(=O)N[C@H]1CSSC[C@@H]2NC(=O)[C@H]([C@@H](C)CC)NC(=O)[C@H](CC(N)=O)NC(=O)[C@H](C(C)C)NC(=O)[C@H](CCCCN)NC(=O)[C@H](CCCCN)NC(=O)CNC(=O)[C@H](CCC(N)=O)NC(=O)[C@H](CCSC)NC(=O)CNC(=O)[C@@H]3CSSC[C@@H](C(=O)N[C@@H](CCCCN)C(=O)N[C@@H](CCCCN)C(=O)NCC(=O)O)NC(=O)[C@H](CCCCN)NC(=O)[C@H](CSSC[C@H](NC(=O)[C@H](C(C)C)NC(=O)[C@H](CCCCN)NC1=O)C(=O)N[C@@H](CCCCN)C(=O)N[C@@H]([C@@H](C)CC)C(=O)N[C@@H]([C@@H](C)CC)C(=O)N3)NC(=O)[C@H](CCCCN)NC(=O)[C@H]([C@@H](C)CC)NC(=O)[C@@H]1CCCN1C(=O)[C@H](C)NC(=O)[C@H](CCCCN)NC2=O)C(C)C [compound 55] (H-GSGIVCKVCKIICGMQGKKVNICKAPIKCKCKKG-OH; disulfide 6-23, 9-29, 13-31)
Resistance to Pepsin (500 U/ml) (pepsin; 500 U/ml pepsin in SGF pH 1.05, 30 minutes at 37.5° C., HPLC peak vs untreated peptide): High (A peptide classified as high indicates that the majority (at least 75%) of the HPLC peak of the treated peptide is still present as compared to the HPLC peak of the untreated peptide)
Resistance to Trypsin (500 U/ml) (trypsin; 500 U/ml trypsin, HPLC peak vs untreated peptide): Low (A peptide classified as low indicates that the majority (over 75%) of the HPLC peak of the treated peptide disappeared as compared to the HPLC peak of the untreated peptide)

GSACQFWSCNSSCISRGYRQGYCWGIQYKYCQCQ [SEQ ID NO: 17]
resistance to incubation at 100° C. (in words) [1]: resistant

GSACLAEYQKCEGSTVPCCPGLSCSAGRFRKTKLCTK [SEQ ID NO: 25]
resistance to incubation at 70° C. (in words) [1]: resistant
resistance to incubation at 100° C. (in words) [1]: various degrees of degradation

CC[C@H](C)[C@@H]1NC(=O)[C@H](CCCCN)NC(=O)[C@@H](NC(=O)[C@H](CCCCN)NC(=O)[C@@H](NC(=O)[C@H](CC(N)=O)NC(=O)[C@@H](NC(=O)[C@@H](NC(=O)[C@@H](NC(=O)CNC(=O)[C@H](CO)NC(=O)CN)C(C)C)[C@@H](C)CC)[C@@H](C)CC)C(C)C)CSSC[C@@H]2NC(=O)[C@H](CCCCN)NC(=O)CNC(=O)[C@H](Cc3ccccc3)NC(=O)[C@H](CCCNC(=N)N)NC(=O)[C@H](CCSC)NC(=O)CNC(=O)[C@H](C)NC(=O)[C@H](CCCCN)NC(=O)[C@H](CCCCN)NC(=O)[C@@H]3CSSC[C@@H](C(=O)N[C@H](C(=O)N4CCC[C@H]4C(=O)N[C@@H](CCCCN)C(=O)O)[C@@H](C)O)NC(=O)[C@H](Cc4c[nH]cn4)NC(=O)[C@H](CSSC[C@H](NC(=O)[C@H](CCC(N)=O)NC(=O)[C@H](CCCNC(=N)N)NC(=O)[C@H](CO)NC1=O)C(=O)N[C@@H](CC(C)C)C(=O)N[C@@H](CCC(=O)O)C(=O)N1CCC[C@H]1C(=O)N3)NC(=O)[C@H](CCCCN)NC(=O)CNC(=O)[C@H](CC(N)=O)NC(=O)[C@H](CCSC)NC2=O [SEQ ID NO: 57]
resistance to trypsin digestion (in words) (trypsin; 500 U/ml trypsin (50 U per reaction), HPLC): highly resistant; also recorded: fully resistant

CC[C@H](C)[C@@H]1NC(=O)[C@@H](NC(=O)[C@H](CC(=O)O)NC(=O)[C@H](CCCCN)NC(=O)[C@H](CCC(=O)O)NC(=O)[C@H](CO)NC(=O)[C@H](CO)NC(=O)CN)CSSC[C@@H]2NC(=O)[C@@H]3CSSC[C@@H](C(=O)N[C@@H](CCCNC(=N)N)C(=O)O)NC(=O)[C@H](CCCNC(=N)N)NC(=O)[C@H](CCCCN)NC(=O)[C@H](CCC(=O)O)NC(=O)[C@@H]4CCCN4C(=O)[C@H](CC(N)=O)NC(=O)[C@H]([C@@H](C)O)NC(=O)CNC(=O)[C@H](CCCNC(=N)N)NC(=O)[C@H](CCCNC(=N)N)NC(=O)[C@H](CO)NC(=O)[C@H](CSSC[C@H](NC(=O)[C@H](CCCNC(=N)N)NC(=O)[C@H](CCC(N)=O)NC(=O)[C@H](CC(C)C)NC(=O)[C@H](Cc4c[nH]cn4)NC(=O)[C@H](CCCCN)NC1=O)C(=O)N[C@@H](CCCNC(=N)N)C(=O)N[C@@H](CCC(=O)O)C(=O)N[C@@H](CC(N)=O)C(=O)N[C@@H](CCCCN)C(=O)N[C@@H](CC(=O)O)C(=O)N3)NC(=O)[C@H](CCCCN)NC(=O)[C@H](CCCCN)NC(=O)[C@H](CO)NC2=O [SEQ ID NO: 29] (H-GSSEKDCIKHLQRCRENKDCCSKKCSRRGTNPEKRCR-OH; disulfide 7-21, 14-25, 20-36)
resistance to pepsin digestion (in words) (pepsin; 500 U/ml pepsin (50 U per reaction) in SGF, 30 minutes at 37.5° C., HPLC): resistant

GSEVIRCSGSKQCYGPCKQQTGCTNSKCMNKVCKCYGCG [SEQ ID NO: 23]
resistance to incubation at 70° C. (in words) [1]: resistant
resistance to incubation at 100° C. (in words) [1]: various degrees of degradation
